IntAct's records for PubMed 12649160

B1: Fanconi anemia group C protein (Homo sapiens), Q00597 (parent)
chain: MAQDSVDLSCDYQFWMQKLSVWDQASTLETQQDTCLHVAQFQEFLRKMYEALKEMDSNTVIERFPTIGQLLAKACWNPFILAYDESQKILIWCLCCLINKEPQNSGQSKLNSWIQGVLSHILSALRFDKEVALFTQGLGYAPIDYYPGLLKNMVLSLASELRENHLNGFNTQRRMAPERVASLSRVCVPLITLTDVDPLVEALLICHGREPQEILQPEFFEAVNEAILLKKISLPMSAVVCLWLRHLPSLEKAMLHLFEKLISSERNCLRRIECFIKDSSLPQAACHPAIFRVVDEMFRCALLETDGALEIIATIQVFTQCFVEALEKASKQLRFALKTYFPYTSPSLAMVLLQDPQDIPRGHWLQTLKHISELLREAVEDQTHGSCGGPFESWFLFIHFGGWAEMVAEQLLMSAAEPPTALLWLLAFYYGPRDGRQQRAQTMVQVKAVLGHLLAMSRSSSLSAQDLQTVAGQGTDTDLRAPAQQLIRHLLLNFLLWAPGGHTIAWDVITLMAHTAEITHEIIGFLDQTLYRWNRLGIESPRSEKLARELLKELRTQV
partner: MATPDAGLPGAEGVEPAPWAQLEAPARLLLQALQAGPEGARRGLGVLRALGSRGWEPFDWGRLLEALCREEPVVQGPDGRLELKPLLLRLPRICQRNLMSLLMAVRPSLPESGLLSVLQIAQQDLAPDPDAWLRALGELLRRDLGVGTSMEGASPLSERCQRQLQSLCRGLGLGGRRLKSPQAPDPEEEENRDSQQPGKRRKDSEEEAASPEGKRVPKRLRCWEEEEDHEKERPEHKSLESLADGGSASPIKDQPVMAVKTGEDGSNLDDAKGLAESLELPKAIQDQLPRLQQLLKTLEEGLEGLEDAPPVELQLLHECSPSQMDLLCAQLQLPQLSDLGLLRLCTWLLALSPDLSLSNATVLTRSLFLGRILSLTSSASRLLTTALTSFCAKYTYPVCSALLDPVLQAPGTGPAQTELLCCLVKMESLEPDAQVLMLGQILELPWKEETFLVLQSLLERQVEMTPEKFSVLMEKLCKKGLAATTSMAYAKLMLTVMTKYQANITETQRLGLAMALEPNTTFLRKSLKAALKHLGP
B2: Fanconi anemia group G protein (Homo sapiens), O15287 (parent)
chain: MSRQTTSVGSSCLDLWREKNDRLVRQAKVAQNSGLTLRRQQLAQDALEGLRGLLHSLQGLPAAVPVLPLELTVTCNFIILRASLAQGFTEDQAQDIQRSLERVLETQEQQGPRLEQGLRELWDSVLRASCLLPELLSALHRLVGLQAALWLSADRLGDLALLLETLNGSQSGASKDLLLLLKTWSPPAEELDAPLTLQDAQGLKDVLLTAFAYRQGLQELITGNPDKALSSLHEAASGLCPRPVLVQVYTALGSCHRKMGNPQRALLYLVAALKEGSAWGPPLLEASRLYQQLGDTTAELESLELLVEALNVPCSSKAPQFLIEVELLLPPPDLASPLHCGTQSQTKHILASRCLQTGRAGDAAEHYLDLLALLLDSSEPRFSPPPSPPGPCMPEVFLEAAVALIQAGRAQDALTLCEELLSRTSSLLPKMSRLWEDARKGTKELPYCPLWVSATHLLQGQAWVQLGAQKVAISEFSRCLELLFRATPEEKEQGAAFNCEQGCKSDAALQQLRAAALISRGLEWVASGQDTKALQDFLLSVQMCPGNRDTYFHLLQTLKRLDRRDEATALWWRLEAQTKGSHEDALWSLPLYLESYLSWIRPSDRDAFLEEFRTSLPKSCDL
partner: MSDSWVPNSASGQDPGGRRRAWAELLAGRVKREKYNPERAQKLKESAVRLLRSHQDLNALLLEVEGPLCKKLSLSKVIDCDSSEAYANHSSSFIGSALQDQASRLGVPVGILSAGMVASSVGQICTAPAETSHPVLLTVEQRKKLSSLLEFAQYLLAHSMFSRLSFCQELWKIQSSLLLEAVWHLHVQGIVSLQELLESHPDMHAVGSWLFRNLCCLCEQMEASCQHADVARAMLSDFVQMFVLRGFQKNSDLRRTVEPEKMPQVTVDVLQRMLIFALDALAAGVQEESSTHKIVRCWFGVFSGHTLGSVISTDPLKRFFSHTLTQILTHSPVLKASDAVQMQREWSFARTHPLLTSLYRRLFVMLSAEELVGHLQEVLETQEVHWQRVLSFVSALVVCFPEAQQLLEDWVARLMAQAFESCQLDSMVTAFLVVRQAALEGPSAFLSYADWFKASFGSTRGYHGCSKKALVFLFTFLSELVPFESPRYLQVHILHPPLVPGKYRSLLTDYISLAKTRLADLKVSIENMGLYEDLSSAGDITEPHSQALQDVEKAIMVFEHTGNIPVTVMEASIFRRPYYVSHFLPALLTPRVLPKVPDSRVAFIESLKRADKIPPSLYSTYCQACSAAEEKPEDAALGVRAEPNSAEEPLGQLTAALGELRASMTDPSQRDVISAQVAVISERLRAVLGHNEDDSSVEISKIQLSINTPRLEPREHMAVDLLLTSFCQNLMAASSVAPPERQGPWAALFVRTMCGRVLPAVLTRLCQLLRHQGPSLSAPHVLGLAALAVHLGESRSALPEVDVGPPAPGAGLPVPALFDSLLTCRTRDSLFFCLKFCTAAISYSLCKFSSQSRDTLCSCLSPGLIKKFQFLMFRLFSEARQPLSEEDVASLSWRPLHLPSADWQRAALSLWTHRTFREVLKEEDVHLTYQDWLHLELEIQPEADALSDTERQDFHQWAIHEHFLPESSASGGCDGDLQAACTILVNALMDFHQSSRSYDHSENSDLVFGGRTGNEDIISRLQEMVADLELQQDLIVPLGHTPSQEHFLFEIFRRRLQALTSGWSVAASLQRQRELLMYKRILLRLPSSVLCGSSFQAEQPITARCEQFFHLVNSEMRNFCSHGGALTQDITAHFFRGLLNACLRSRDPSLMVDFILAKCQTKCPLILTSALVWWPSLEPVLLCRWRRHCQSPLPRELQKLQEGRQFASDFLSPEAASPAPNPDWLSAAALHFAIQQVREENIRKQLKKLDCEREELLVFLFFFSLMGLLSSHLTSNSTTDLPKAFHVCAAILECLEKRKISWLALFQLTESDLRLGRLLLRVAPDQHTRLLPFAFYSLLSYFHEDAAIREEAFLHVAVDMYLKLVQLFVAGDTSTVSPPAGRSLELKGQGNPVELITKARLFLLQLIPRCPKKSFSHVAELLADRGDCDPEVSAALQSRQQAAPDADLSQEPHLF

Variants of: B1
Settings: with fance_human FANCE

Variant | effect of a mutation on the interaction
L554P | disrupting interaction

Variants of: B2
Settings: with fanca_human FANCA

Variant | effect of a mutation on the interaction
L71P | disrupting interaction
